# Experimental data: the Immune Epitope Database (IEDB)
# Molecular target: HLA-A*01:01
# Assay: IEDB peptide-MHC binding, purified MHC/competitive/radioactivity; ≥ and ≤ were set here for values at or beyond the usual limits of such assays
# Conditions: source organism: Homo sapiens
row,IC50,Sequence
1,30300 nM,GSHLVEALY

# Molecular target: HLA-A*02:01
# Assay: as above
# Conditions: source organism: Homo sapiens
row,IC50,Sequence
1,29 nM,ALARGAGTVPL
2,76 nM,ALGDLFQSI
3,1310 nM,ALTAVAEEV
4,1010 nM,ALWGPDPAAA
5,575 nM,AVAANIVLTV
6,637 nM,ELAEYLYNI
7,7020 nM,FIQVYEVERA
8,1.1 nM,FLFAVGFYL
9,26 nM,FLIVLSVAL
10,16 nM,FLLSLFSLWL
11,70 nM,FLQDVMNIL
12,26 nM,FLWSVFMLI
13,55 nM,FLWSVFWLI
14,84 nM,FMTSSWWRAPL
15,5.8 nM,GLLQVHHSCPL
16,460 nM,GVFIQVYEV
17,216 nM,HIAGSLAVV
18,4060 nM,HLASEKVYAI
19,7540 nM,HLCGSHLVEA
20,4260 nM,HLSYHRLLPL
21,2.2 nM,ILAVDGVLSV
22,11200 nM,ILDKKVEKV

row,IC50,Sequence
1,39 nM,ILKDFSILL
2,478 nM,ILMHCQTTL
3,675 nM,ILVLASTITI
4,9040 nM,IQATVMIIV
5,97 nM,KLANIQCLCL
6,1370 nM,KLQVFLIVL
7,880 nM,KMYAFTLES
8,11 nM,KVLHELFGMDI
9,6930 nM,LASEKVYAI
10,5420 nM,LIFDLGGGT
11,51 nM,LLDVAPLSL
12,233 nM,LLGRFELIGI
13,7840 nM,LLHVHHSCPL
14,8.1 nM,LLIDLTSFL
15,10 nM,LLLLDVAPL
16,444 nM,LLPPLLEHL
17,35 nM,LLQEYNWEL
18,3090 nM,LLQVHHSCPL
19,734 nM,LLSILCIWV
20,152 nM,LLSLFSLWL
21,143 nM,LMFWSPSHSCA
22,7370 nM,LMGDKSENV

row,IC50,Sequence
1,684 nM,LNIDLLWSV
2,11800 nM,LVEALYLVC
3,126 nM,MVWESGCTV
4,67 nM,NLAQDLATV
5,764 nM,NLLGRFELI
6,1.8 nM,NLLGRFELIGI
7,581 nM,RLGPVARTRV
8,5.4 nM,RLLPLWAALPL
9,124 nM,RLLYPDYQI
10,1230 nM,RLQREWHTL
11,8230 nM,RLRPLCCTA
12,709 nM,RMMEYGTTMV
13,2150 nM,SHLVEALYLV
14,1560 nM,SISVLISAL
15,9.1 nM,SLASLLPHV
16,472 nM,SLEEEIRFL
17,51 nM,SLFEGVDFYT
18,101 nM,SLSPLQAEL
19,242 nM,SLTAISTTL
20,237 nM,SLTTISTTL
21,209 nM,SLYHVYEVNL
22,1150 nM,SMCRFSPLTL

row,IC50,Sequence
1,631 nM,SMPQGTFPV
2,25100 nM,STVASRLGPV
3,9230 nM,STVASWLGPV
4,1760 nM,SVASLLPHV
5,4690 nM,TIADFWQMV
6,2780 nM,TLSSRVCCRT
7,104 nM,TMHSLTIQM
8,7700 nM,TVASRLGPV
9,320 nM,VAANIVLTV
10,2120 nM,VIVMLTPLV
11,287 nM,VLHELFGMDI
12,1140 nM,VLNSVASLL
13,17200 nM,VLVEGSTRI
14,2020 nM,VMNILLQYV
15,2310 nM,VMNILLQYVV
16,9 nM,VVTGVLVYL
17,4.2 nM,WLLPLWAAL
18,3.2 nM,WLLPLWAALPL
19,9510 nM,YIPSCTVVGM
20,57 nM,YLLLRVLNI

# Molecular target: HLA-A*03:01
# Assay: as above
# Conditions: source organism: Homo sapiens
row,IC50,Sequence
1,2790 nM,ALYLVCGER
2,27400 nM,LVCGERGFFY

# Molecular target: HLA-A*11:01
# Assay: as above
# Conditions: source organism: Homo sapiens
row,IC50,Sequence
1,28300 nM,ALYLVCGER
2,27200 nM,LVCGERGFFY
3,18300 nM,RFKMFPEVK

# Molecular target: HLA-A*24:02
# Assay: as above
# Conditions: source organism: Homo sapiens
row,IC50,Sequence
1,15100 nM,ALWGPDPAAAF
2,6180 nM,ALWMRLLPLL
3,545 nM,LWMRLLPLL
4,5260 nM,LYLVCGERGF
5,10200 nM,RLLPLLALL

# Molecular target: HLA-B*07:02
# Assay: as above
# Conditions: source organism: Homo sapiens
row,IC50,Sequence
1,18300 nM,APVIKARMM
2,1250 nM,HPRYFNQLST
3,3860 nM,IPSDLERRIL
4,610 nM,LPLLALLAL
5,2360 nM,WMRLLPLLAL

# Molecular target: HLA-B*08:01
# Assay: as above
# Conditions: source organism: Homo sapiens
row,IC50,Sequence
1,107 nM,ALWMRLLPL
2,33 nM,ALWMRLLPLL
3,13000 nM,FYTPKTRRE
4,1380 nM,GERGFFYT

# Molecular target: HLA-B*18:01
# Assay: as above
# Conditions: source organism: Homo sapiens
row,IC50,Sequence
1,626 nM,VCGERGFFYT

# Molecular target: HLA-B*35:01
# Assay: as above
# Conditions: source organism: Homo sapiens
row,IC50,Sequence
1,12300 nM,LPLLALLAL

# Molecular target: HLA-B*51:01
# Assay: as above
# Conditions: source organism: Homo sapiens
row,IC50,Sequence
1,1160 nM,LPLLALLAL
